In patent US12072338B2, “Pharmaceutical peptides for the treatment of inflammatory diseases” (PROTAGONISTS LTD., priority 2007, dated 2024):
Read-outs that look alike come from different tables or passages of the source.

Key:
Eotaxin 3 = target: T1, Eotaxin 3 (Homo sapiens, UniProt Q9Y258); experiment: Micro-array analysis of chemokine binding peptides: Eotaxin 3; conditions: for binding to Eotaxin 3 with relatively high affinity (Relative Fluorescence Units): limit = start of the upper 75% of that peptide's response range
T1 construct: purchased 300-48
T1 sequence (Q9Y258 24-94): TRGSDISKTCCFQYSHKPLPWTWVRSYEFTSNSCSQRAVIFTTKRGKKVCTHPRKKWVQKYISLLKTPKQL
Method in brief: (§1)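 Phage-presented peptides (10^7 pfu/μl in wash buffer) were incubated 1 h at room temperature on blocked slides carrying chemokine spots at 25 or 50 μg/ml. After anti-M13 and Cy3-labelled secondary antibody staining, slides were laser-scanned and spot fluorescence quantified as relative binding.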

MCP-2 = target: T2, MCP-2 (Homo sapiens, UniProt P80075); experiment: Micro-array analysis of chemokine binding peptides: MCP-2; conditions: limit = start of the upper 75% of that peptide's response range
T2 construct: purchased 300-15
T2 sequence (P80075 24-99): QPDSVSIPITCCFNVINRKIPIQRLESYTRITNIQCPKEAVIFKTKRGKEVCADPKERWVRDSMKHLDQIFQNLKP
Method in brief: as §1

MCP-4 = target: T3, MCP-4 (Homo sapiens, UniProt Q99616); experiment: Micro-array analysis of chemokine binding peptides: MCP-4; conditions: limit = start of the upper 75% of that peptide's response range
T3 construct: purchased 300-24
T3 sequence (Q99616 17-98): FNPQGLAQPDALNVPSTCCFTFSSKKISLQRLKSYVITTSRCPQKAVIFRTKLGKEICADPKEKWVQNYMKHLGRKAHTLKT
Method in brief: as §1

I-309 = target: T4, I-309 (Homo sapiens, UniProt P22362); experiment: Micro-array analysis of chemokine binding peptides: I-309; conditions: for binding to I-309 with relatively high affinity (Relative Fluorescence Units): limit = start of the upper 75% of that peptide's response range
T4 construct: purchased 300-37
T4 sequence (P22362 24-96): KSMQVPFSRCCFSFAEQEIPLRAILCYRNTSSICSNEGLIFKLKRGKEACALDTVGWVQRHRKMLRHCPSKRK
Method in brief: as §1

TECK = target: T5, TECK (Homo sapiens, UniProt O15444); experiment: Micro-array analysis of chemokine binding peptides: TECK
T5 construct: purchased 300-45
T5 sequence (O15444 24-150): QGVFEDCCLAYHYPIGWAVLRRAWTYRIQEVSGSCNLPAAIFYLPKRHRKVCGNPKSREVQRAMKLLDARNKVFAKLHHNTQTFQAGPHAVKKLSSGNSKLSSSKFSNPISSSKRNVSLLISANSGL
Method in brief: as §1

SDF1-β = target: T6, SDF1-β (Homo sapiens, UniProt P48061); experiment: Micro-array analysis of chemokine binding peptides: SDF1-β
T6 construct: purchased 300-28b
T6 sequence (P48061 22-93): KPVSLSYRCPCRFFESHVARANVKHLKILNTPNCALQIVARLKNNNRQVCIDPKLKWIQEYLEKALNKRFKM
Method in brief: as §1

IL-8 = experiment: Micro-array analysis of chemokine binding peptides: IL-8; conditions: for binding to IL-8 with relatively high affinity (Relative Fluorescence Units): limit = start of the upper 75% of that peptide's response range
IL-8, sequence (P10145 28-99 limits assumed): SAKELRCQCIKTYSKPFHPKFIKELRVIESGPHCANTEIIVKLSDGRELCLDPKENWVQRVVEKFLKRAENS
Method in brief: as §1

Fractalkine = target: T7, Fractalkine (Homo sapiens, UniProt P78423); experiment: Micro-array analysis of chemokine binding peptides: Fractalkine
T7 construct: purchased 300-31
T7 sequence (P78423 25-100 limits assumed): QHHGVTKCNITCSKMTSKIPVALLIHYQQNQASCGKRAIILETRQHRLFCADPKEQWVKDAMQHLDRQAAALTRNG
Method in brief: as §1

Eotaxin 2 = target: T8, Eotaxin 2 (Homo sapiens, UniProt O00175); experiment: Micro-array analysis of chemokine binding peptides: Eotaxin 2
T8 construct: purchased 300-33
T8 sequence (O00175 27-119): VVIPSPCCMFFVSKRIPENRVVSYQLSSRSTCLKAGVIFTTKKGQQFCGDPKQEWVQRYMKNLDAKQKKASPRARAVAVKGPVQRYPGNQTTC
Experimental: (1) Printing: Chemokine (CK) solution (in water) was serially diluted with Print Reagent (GenTel BioSurfaces USA) to final concentrations of 50 μg and 25 μg/ml. BSA/BSA-Biotin control solutions (in water) were diluted with Print Reagent to 100 μg/ml. Amplified stock of M13 phage control (M13KEgIII Cloning Vector, New England Biolabs, Cat.No.E8101S) was stored in Tris Buffered Saline (TBS; pH7.5, 4° C.) and diluted with Print Reagent to the working titre (10^8 pfu/μl). An automated spotting robot (16 pin print tool, 0.4 mm head; BioRobotics, UK) was used to print the CK/BSA control/M13 control, 5 repeats per sample (CK 25 μg/ml and 50 μg/ml; BSA 100 μg/ml; M13 20 μl), on PATH Protein Microarray Slides (GenTel, Prod.No. 2-1005/-1025) at […], and 50-70% relative humidity. Printed micro-array slides were stored at Room Temperature (RT) or 4° C. for at least 24 h before use.
(2) Blocking: Block Buffer (500 μl/partition; PATHblock, GenTel, Prod.No. 2-1014) was applied to the slide for 1 hour at room temp (RT). After removal of Block Buffer, the slide was air dried for 25 minutes;
(3) Phage Presented Peptide Binding: Amplified recombinant phage stock was stored in TBS and diluted with Wash Buffer to working titer (10^7 pfu/μl). Recombinant phage suspension (300 μl) was applied per partition and incubated at RT for 1 hour with gentle agitation.
(4) First Washing: The slides were washed twice with Wash Buffer 300 μl/partition).
(5) Primary Antibody (Ab) Labeling: The slides were incubated with the Primary Ab (1 mg/ml diluted ×2500 (Wash Reagent), 300 μl; Mouse Anti-M13 monoclonal Ab; Amersham Biosciences, UK; Product Code 27-9420-01) for 45 minutes at RT.
(6) Second Washing: The slides were washed twice with Wash Buffer (300 μl/partition).
(7) Secondary Ab Labeling: The slides were incubated with Secondary Ab (1.5 mg/ml diluted ×5000 (Wash Reagent), 300 μl; Cy3-conjugated AffiniPure Goat Anti-Mouse IgG; Jackson ImmunoReserch Labs, USA; Product Code 115-165-062).
(8) Third Washing: The slides were washed twice with Wash Buffer (300 μl/partition).
(9) Rinse: the slides were rinsed twice with Rinse Buffer (PATHrinse, GenTel, Prod.No. 2-1018) then dried well.
(10) Scanning: The peptide-bound, labeled slide was scanned (Laser Intensity 80%, Gain 80%, Resolution 10 μm) with a ScanArray Life Scanner (Packard BioChip Technologies, USA).
(11) Analysis: Quantitative analysis of micro-array was performed by the SpotReader program of Niles Scientific (USA) and presented as Relative Fluorescence (RF) as a function of CK concentration. Micro-array readout (Cy3 fluorescence) was quantified to determine the relative binding affinities of a CBP for the CKs and by inference, the specificity of the CBP for binding to a CK.

BCA-1 = target: T9, BCA-1 (Homo sapiens, UniProt O43927); experiment: Micro-array analysis of chemokine binding peptides: BCA-1
T9 construct: purchased 300-47
T9 sequence (O43927 23-109): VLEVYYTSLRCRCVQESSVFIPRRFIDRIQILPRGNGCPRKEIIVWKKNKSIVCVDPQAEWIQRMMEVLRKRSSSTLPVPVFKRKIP
Method in brief: as §1

I-TAC = target: T10, I-TAC (Homo sapiens, UniProt O14625); experiment: Micro-array analysis of chemokine binding peptides: I-TAC; conditions: for binding to I-TAC with relatively high affinity (Relative Fluorescence Units): limit = start of the upper 75% of that peptide's response range
T10 construct: purchased 300-46
T10 sequence (O14625 22-94): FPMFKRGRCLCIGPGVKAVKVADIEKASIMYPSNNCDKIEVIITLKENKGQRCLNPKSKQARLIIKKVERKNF
Method in brief: as §1

RANTES = target: T11, RANTES (Homo sapiens, UniProt P13501); experiment: Micro-array analysis of chemokine binding peptides: RANTES
T11 construct: purchased 300-06
T11 sequence (P13501 24-91): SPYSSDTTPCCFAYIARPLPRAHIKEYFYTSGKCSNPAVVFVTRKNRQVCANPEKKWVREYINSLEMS
Method in brief: as §1

[1] = limit = start of the upper 75% of that peptide's response range

WVFGAAMCK [Ph-p8.8]
bound specifically and differentially: binding to IL-8, stated in words (IL-8; listed as P8.8) | binding to Fractalkine, stated in words (Fractalkine; listed as P8.8)
bound: binding to Eotaxin 3, stated in words (Eotaxin 3) | binding to I-309, stated in words (I-309) | binding to TECK, stated in words (TECK) | binding to SDF1-β, stated in words (SDF1-β) | binding to IL-8, stated in words (IL-8) | binding to Fractalkine, stated in words (Fractalkine) | binding to Eotaxin 2, stated in words (Eotaxin 2) | binding to BCA-1, stated in words (BCA-1) | binding to I-TAC, stated in words (I-TAC)
> 15,000 RFU: binding to MCP-2 with relatively high affinity (Relative Fluorescence Units) (MCP-2) | binding to MCP-4 with relatively high affinity (Relative Fluorescence Units) (MCP-4)

WVFGNAMCK [P8]
> 25,000 RFU: binding to Eotaxin 3 with relatively high affinity (Relative Fluorescence Units) (Eotaxin 3) | binding to MCP-2 with relatively high affinity (Relative Fluorescence Units) (MCP-2) | binding to MCP-4 with relatively high affinity (Relative Fluorescence Units) (MCP-4) | binding to I-309 with relatively high affinity (Relative Fluorescence Units) (I-309) | binding to TECK with relatively high affinity (Relative Fluorescence Units) (TECK; [1]) | binding to SDF1-β with relatively high affinity (Relative Fluorescence Units) (SDF1-β; [1]) | binding to IL-8 with relatively high affinity (Relative Fluorescence Units) (IL-8) | binding to Fractalkine with relatively high affinity (Relative Fluorescence Units) (Fractalkine; [1]) | binding to BCA-1 with relatively high affinity (Relative Fluorescence Units) (BCA-1; [1]) | binding to I-TAC with relatively high affinity (Relative Fluorescence Units) (I-TAC)
bound specifically and differentially: binding to IL-8, stated in words (IL-8) | binding to Fractalkine, stated in words (Fractalkine) | binding to RANTES, stated in words (RANTES)

DYDYGAPC [Ph-p30]
bound: binding to TECK, stated in words (TECK) | binding to SDF1-β, stated in words (SDF1-β) | binding to Fractalkine, stated in words (Fractalkine) | binding to BCA-1, stated in words (BCA-1)
> 15,000 RFU: binding to Eotaxin 3 with relatively high affinity (Relative Fluorescence Units) (Eotaxin 3) | binding to MCP-2 with relatively high affinity (Relative Fluorescence Units) (MCP-2) | binding to MCP-4 with relatively high affinity (Relative Fluorescence Units) (MCP-4) | binding to I-309 with relatively high affinity (Relative Fluorescence Units) (I-309) | binding to IL-8 with relatively high affinity (Relative Fluorescence Units) (IL-8) | binding to Eotaxin 2 with relatively high affinity (Relative Fluorescence Units) (Eotaxin 2; [1]) | binding to I-TAC with relatively high affinity (Relative Fluorescence Units) (I-TAC) | binding to RANTES with relatively high affinity (Relative Fluorescence Units) (RANTES; [1])
